This is an account of results in patent US20120039846A1.

A value given as a limit tells only on which side of the number the result lay.

In assay [1] the target is H77c E2 with substitutions at Val536 (row 10), Phe537 (row 11) and Asn540 (row 12). The assay can be described thus: ELISA on GNA-captured mutant E2 from 293T lysates. On the technique in general: An ELISA detects its analyte on a solid surface through an enzyme-linked reagent.
Assay [2] concerns the target HCV envelope glycoprotein E2, genotype 1a (hepatitis C virus genotype 1a) (UniProt P27958). The assay can be described thus: cell-based or functional assay.
Assay [3] has as its target HCV envelope glycoprotein E2, genotype 1b (hepatitis C virus genotype 1b). Put plainly: CD81 capture ELISA; 1b E1E2 lysate preincubated with antibody (15 µg/ml), added to CD81-coated wells, detected with biotinylated CBH-4D.
The target in assay [4] is H77c E2 mutant, Asp533 substituted (hepatitis C virus genotype 1a, strain H77c) (UniProt P27958). The assay can be described thus: ELISA on GNA-captured mutant E2 from 293T lysates.
The target of assay [5] is H77c E2 mutant, Asn532 substituted (hepatitis C virus genotype 1a, strain H77c) (UniProt P27958). The assay can be described thus: ELISA on GNA-captured mutant E2 from 293T lysates.
For assay [6], the target named is H77c E2 mutant, Pro525 substituted (hepatitis C virus genotype 1a, strain H77c) (UniProt P27958). Put plainly: ELISA on GNA-captured mutant E2 from 293T lysates.
For assay [7], the target named is H77c E2 mutant, Thr534 substituted (hepatitis C virus genotype 1a, strain H77c) (UniProt P27958). Put plainly: ELISA on GNA-captured mutant E2 from 293T lysates.
The target of assay [8] is H77c E2 mutant, Ala531 substituted (hepatitis C virus genotype 1a, strain H77c) (UniProt P27958). The assay can be described thus: ELISA on GNA-captured mutant E2 from 293T lysates.
The target of assay [9] is HCV envelope glycoprotein E2, genotype 1b (hepatitis C virus genotype 1b). The assay can be described thus: competition ELISA on GNA-captured E2 of 1b HCVpp lysate; competing antibody 20 ug/ml; competitor: biotinylated CBH-7 at 2 ug/ml.
Assay [10] deals with H77c E2 mutant, Asn540 replaced by alanine (hepatitis C virus genotype 1a, strain H77c) (UniProt P27958). The assay can be described thus: ELISA on GNA-captured mutant E2 from 293T lysates.
The target in assay [11] is H77c E2 mutant, Gly523 replaced by alanine (hepatitis C virus genotype 1a, strain H77c) (UniProt P27958). The assay can be described thus: ELISA on GNA-captured mutant E2 from 293T lysates.
In assay [12] the target is H77c E2 mutant, Asp535 replaced by alanine (hepatitis C virus genotype 1a, strain H77c) (UniProt P27958). Put plainly: ELISA on GNA-captured mutant E2 from 293T lysates.
The target of assay [13] is H77c E2 mutant, Gly530 replaced by alanine (hepatitis C virus genotype 1a, strain H77c) (UniProt P27958). The assay can be described thus: ELISA on GNA-captured mutant E2 from 293T lysates.
Assay [14] concerns the target H77c E2 mutant, Trp529 replaced by alanine (hepatitis C virus genotype 1a, strain H77c) (UniProt P27958). Put plainly: ELISA on GNA-captured mutant E2 from 293T lysates.
For assay [15], the target named is H77c E2 mutant D658A (hepatitis C virus genotype 1a, strain H77c) (UniProt P27958). The assay can be described thus: alanine replacement, ELISA.
The target of assay [16] is H77c E2 mutant D698A (hepatitis C virus genotype 1a, strain H77c) (UniProt P27958). Put plainly: alanine replacement, ELISA.
In assay [17] the target is H77c E2 mutant R657A (hepatitis C virus genotype 1a, strain H77c) (UniProt P27958). Put plainly: alanine replacement, ELISA.
Assay [18] deals with H77c E2 mutant I696A (hepatitis C virus genotype 1a, strain H77c) (UniProt P27958). Put plainly: alanine replacement, ELISA.
Assay [19] has as its target H77c E2 mutant L692A (hepatitis C virus genotype 1a, strain H77c) (UniProt P27958). Put plainly: alanine replacement, ELISA.
Assay [20] concerns the target H77c E2 mutant F679A (hepatitis C virus genotype 1a, strain H77c) (UniProt P27958). Put plainly: alanine replacement, ELISA.

CBH-4G (antibody): the percent decrease in binding vs wild type in assay [1] fell in the range of 70 to 95%.
In [2], CBH-5 (antibody) came in with an IC50 of 1a HCVpp neutralization of 4 mg/L and a neutralization of 1a HCVpp at 20 µg/ml of 60%. In [3], this substance had a percent reduction of E2 binding to CD81 greater than 90%.
For HC-12 (antibody), the percent change in binding vs wild type in assay [4], in assay [5], in [6], in [7] and in [8] was less than 20% throughout.
Turning to human monoclonal antibody CBH-23, the percent competition in assay [9] was greater than 90%. For the same substance, the percent reduction of E2 binding to CD81 in [3] is greater than 90%.
In the case of human monoclonal antibody HC-1, the percent of wild-type binding (% of wild type) in assay [10], in assay [13] and in assay [14] was less than 10 throughout. Besides, the percent decrease in binding vs wild type was 60% in assay [11], greater than 80% in [12] and greater than 80% in assay [13]. Besides, the percent change in binding vs wild type in assay [4], in [5], in assay [6], in assay [7] and in assay [8] was less than 20% throughout. In assay [3], this substance registered a percent reduction of E2 binding to CD81 greater than 90%.
For human monoclonal antibody HC-3, the percent decrease in binding in assay [15], in assay [16], in assay [17], in [18], in assay [19] and in assay [20] was greater than 90% in each case.
In assay [2], human monoclonal antibody HC-11 showed an IC50 of 1a HCVpp neutralization of 0.9 mg/L. For the same substance, the results for the percent decrease in binding vs wild type in assay [11] and in assay [14] were 60% and 44%, respectively. In addition, the percent reduction of E2 binding to CD81 in [3] was greater than 90%.
